Laboratory results published in patent US20150344570A1 (published 2015).

B1: GpH7-B3 variant A330_20W/GpL16-k0 (antibody, human IgG1, kappa)
heavy: not shown
light: DIVMTQSPLSLPVTPGEPASISCQASESLVHSNRNTYLHWYLQKPGQSPQLLIYKVSNRFSGVPDRFSGSGSGTDFTLKISRVEAEDVGVYYCSQNTHVPPTFGQGTKVEIERTVAAPSVFIFPPSDEQLKSGTASVVCLLNNFYPREAKVQWKVDNALQSGNSQESVTEQDSKDSTYSLSSTLTLSKADYEKHKVYACEVTHQGLSSPVTKSFNRGEC
notes: also called Ho Ab A330_20W
B2: GpH7-A5/GpH7-B3 variant K334_01G/GpL16-k0 (antibody, human IgG1, kappa)
heavy 1: not shown
heavy 2: not shown
light: B1 light
notes: also called He Ab K334_01G
B3: GpH7-B3 variant K326_06M/GpL16-k0 (antibody, human IgG1, kappa)
heavy: not shown
light: B1 light
notes: also called Ho Ab K326_06M
B4: GpH7-B3 variant K334_08L/GpL16-k0 (antibody, human IgG1, kappa)
heavy: not shown
light: B1 light
notes: also called Ho Ab K334_08L
B5: GpH7-B3 variant I332_19Q/GpL16-k0 (antibody, human IgG1, kappa)
heavy: not shown
light: B1 light
notes: also called Ho Ab I332_19Q
B6: GpH7-B3 variant S239_09D/GpL16-k0 (antibody, human IgG1, kappa)
heavy: not shown
light: B1 light
notes: also called Ho Ab S239_09D
B7: GpH7-B3 variant K334_10E/GpL16-k0 (antibody, human IgG1, kappa)
heavy: not shown
light: B1 light
notes: also called Ho Ab K334_10E
B8: GpH7-B3 variant K334_14T/GpL16-k0 (antibody, human IgG1, kappa)
heavy: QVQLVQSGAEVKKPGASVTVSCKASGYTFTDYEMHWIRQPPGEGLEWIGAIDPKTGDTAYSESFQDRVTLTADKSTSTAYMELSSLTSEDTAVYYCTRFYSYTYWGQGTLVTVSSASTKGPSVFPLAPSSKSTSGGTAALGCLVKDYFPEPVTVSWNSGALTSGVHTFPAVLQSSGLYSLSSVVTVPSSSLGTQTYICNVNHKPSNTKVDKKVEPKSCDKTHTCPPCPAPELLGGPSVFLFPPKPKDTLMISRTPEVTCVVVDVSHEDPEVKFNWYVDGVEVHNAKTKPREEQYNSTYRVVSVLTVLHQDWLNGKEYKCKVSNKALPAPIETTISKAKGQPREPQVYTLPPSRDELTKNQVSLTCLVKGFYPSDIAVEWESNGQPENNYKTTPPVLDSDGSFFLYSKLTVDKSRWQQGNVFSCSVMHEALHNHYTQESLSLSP
light: B1 light
notes: also called Ho Ab K334_14T
B9: GpH7-B3 variant I336_03V/GpL16-k0 (antibody, human IgG1, kappa)
heavy: not shown
light: B1 light
notes: also called Ho Ab I336_03V
B10: GpH7-B3 variant K334_16H/GpL16-k0 (antibody, human IgG1, kappa)
heavy: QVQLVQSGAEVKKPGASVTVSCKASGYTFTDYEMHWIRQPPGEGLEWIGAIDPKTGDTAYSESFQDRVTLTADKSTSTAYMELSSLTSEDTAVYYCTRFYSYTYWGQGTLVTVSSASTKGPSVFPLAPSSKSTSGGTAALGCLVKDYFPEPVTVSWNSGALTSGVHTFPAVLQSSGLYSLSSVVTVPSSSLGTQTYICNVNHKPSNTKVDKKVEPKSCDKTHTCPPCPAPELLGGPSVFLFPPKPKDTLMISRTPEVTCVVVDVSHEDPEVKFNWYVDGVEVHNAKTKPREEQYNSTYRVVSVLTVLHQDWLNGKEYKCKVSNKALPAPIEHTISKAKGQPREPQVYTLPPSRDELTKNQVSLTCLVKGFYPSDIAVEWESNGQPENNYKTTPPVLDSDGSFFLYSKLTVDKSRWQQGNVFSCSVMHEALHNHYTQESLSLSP
light: B1 light
notes: also called Ho Ab K334_16H
B11: GpH7-B3 variant I336_06M/GpL16-k0 (antibody, human IgG1, kappa)
heavy: not shown
light: B1 light
notes: also called Ho Ab I336_06M
B12: GpH7-B3 variant H268_13S/GpL16-k0 (antibody, human IgG1, kappa)
heavy: not shown
light: B1 light
notes: also called Ho Ab H268_13S
B13: GpH7-B3 variant K326_03V/GpL16-k0 (antibody, human IgG1, kappa)
heavy: not shown
light: B1 light
notes: also called Ho Ab K326_03V
B14: GpH7-B3 variant K334_13S/GpL16-k0 (antibody, human IgG1, kappa)
heavy: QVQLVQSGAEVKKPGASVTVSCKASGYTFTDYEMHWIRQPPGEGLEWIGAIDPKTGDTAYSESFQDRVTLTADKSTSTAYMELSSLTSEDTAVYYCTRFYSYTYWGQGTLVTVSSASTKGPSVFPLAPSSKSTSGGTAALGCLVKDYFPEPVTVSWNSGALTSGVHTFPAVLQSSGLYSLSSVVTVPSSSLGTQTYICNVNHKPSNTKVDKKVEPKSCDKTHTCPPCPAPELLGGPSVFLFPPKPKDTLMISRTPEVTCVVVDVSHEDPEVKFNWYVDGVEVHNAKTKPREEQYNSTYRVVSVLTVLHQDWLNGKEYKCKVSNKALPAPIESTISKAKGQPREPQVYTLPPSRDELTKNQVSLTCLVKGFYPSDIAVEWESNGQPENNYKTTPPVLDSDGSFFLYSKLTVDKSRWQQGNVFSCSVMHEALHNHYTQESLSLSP
light: B1 light
notes: also called Ho Ab K334_13S
B15: GpH7-B3 variant Q295_02A/GpL16-k0 (antibody, human IgG1, kappa)
heavy: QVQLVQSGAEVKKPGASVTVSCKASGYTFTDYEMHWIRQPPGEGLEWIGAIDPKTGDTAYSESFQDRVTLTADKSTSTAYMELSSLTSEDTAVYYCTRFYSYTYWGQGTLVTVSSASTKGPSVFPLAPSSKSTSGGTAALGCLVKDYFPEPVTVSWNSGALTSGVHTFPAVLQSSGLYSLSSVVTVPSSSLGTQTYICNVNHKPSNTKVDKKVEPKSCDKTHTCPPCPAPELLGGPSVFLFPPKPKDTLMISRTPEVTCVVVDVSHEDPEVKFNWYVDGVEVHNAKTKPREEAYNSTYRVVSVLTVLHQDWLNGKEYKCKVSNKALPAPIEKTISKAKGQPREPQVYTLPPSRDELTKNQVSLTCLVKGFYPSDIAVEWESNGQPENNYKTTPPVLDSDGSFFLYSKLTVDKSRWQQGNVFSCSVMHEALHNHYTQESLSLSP
light: B1 light
notes: also called Ho Ab Q295_02A
B16: GpH7-B3 variant I336_09D/GpL16-k0 (antibody, human IgG1, kappa)
heavy: not shown
light: B1 light
notes: also called Ho Ab I336_09D
B17: GpH7-B3 variant K326_07I/GpL16-k0 (antibody, human IgG1, kappa)
heavy: not shown
light: B1 light
notes: also called Ho Ab K326_07I
B18: GpH7-B3 variant I332_10E/GpL16-k0 (antibody, human IgG1, kappa)
heavy: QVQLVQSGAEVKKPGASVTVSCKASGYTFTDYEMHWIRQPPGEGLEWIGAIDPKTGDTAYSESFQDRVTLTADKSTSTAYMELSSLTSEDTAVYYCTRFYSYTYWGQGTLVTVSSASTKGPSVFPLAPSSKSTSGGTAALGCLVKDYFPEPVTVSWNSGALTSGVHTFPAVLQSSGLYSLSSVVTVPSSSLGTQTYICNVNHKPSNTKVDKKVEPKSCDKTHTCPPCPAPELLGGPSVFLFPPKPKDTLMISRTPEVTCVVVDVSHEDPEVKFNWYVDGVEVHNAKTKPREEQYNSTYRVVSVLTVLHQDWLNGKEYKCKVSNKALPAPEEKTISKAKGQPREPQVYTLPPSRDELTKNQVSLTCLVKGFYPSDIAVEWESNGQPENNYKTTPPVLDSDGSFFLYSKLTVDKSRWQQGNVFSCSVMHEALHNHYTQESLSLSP
light: B1 light
notes: also called Ho Ab I332_10E
B19: GpH7-B3 variant T335_07I/GpL16-k0 (antibody, human IgG1, kappa)
heavy: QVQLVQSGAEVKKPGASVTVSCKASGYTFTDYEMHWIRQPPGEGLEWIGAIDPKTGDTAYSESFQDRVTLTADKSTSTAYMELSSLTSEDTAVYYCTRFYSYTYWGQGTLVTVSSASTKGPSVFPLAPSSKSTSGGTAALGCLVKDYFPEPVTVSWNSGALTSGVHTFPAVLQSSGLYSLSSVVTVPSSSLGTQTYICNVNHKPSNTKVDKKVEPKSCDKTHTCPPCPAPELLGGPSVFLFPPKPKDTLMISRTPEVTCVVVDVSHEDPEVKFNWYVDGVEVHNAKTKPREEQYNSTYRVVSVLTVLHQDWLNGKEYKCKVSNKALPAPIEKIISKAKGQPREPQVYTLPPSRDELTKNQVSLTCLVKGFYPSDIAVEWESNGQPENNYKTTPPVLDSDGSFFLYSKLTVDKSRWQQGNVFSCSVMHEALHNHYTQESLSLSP
light: B1 light
notes: also called Ho Ab T335_07I
B20: GpH7-B3 variant I332_15Y/GpL16-k0 (antibody, human IgG1, kappa)
heavy: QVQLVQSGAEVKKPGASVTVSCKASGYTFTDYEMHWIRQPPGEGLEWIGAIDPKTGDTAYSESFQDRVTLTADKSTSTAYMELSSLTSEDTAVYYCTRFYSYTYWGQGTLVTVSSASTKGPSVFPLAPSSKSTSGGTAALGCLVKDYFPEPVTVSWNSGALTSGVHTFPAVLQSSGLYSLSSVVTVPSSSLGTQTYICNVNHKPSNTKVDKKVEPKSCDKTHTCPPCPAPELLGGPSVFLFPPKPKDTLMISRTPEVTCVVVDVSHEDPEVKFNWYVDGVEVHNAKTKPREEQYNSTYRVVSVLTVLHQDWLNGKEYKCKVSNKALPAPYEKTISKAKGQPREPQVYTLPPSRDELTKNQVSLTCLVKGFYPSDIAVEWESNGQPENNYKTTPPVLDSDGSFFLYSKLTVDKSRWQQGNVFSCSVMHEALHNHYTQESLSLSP
light: B1 light
notes: also called Ho Ab I332_15Y
B21: GpH7-B3 variant I336_13S/GpL16-k0 (antibody, human IgG1, kappa)
heavy: not shown
light: B1 light
notes: also called Ho Ab I336_13S
B22: GpH7-B3 variant K334_19Q/GpL16-k0 (antibody, human IgG1, kappa)
heavy: not shown
light: B1 light
notes: also called Ho Ab K334_19Q
B23: GpH7-B3 variant I332_01G/GpL16-k0 (antibody, human IgG1, kappa)
heavy: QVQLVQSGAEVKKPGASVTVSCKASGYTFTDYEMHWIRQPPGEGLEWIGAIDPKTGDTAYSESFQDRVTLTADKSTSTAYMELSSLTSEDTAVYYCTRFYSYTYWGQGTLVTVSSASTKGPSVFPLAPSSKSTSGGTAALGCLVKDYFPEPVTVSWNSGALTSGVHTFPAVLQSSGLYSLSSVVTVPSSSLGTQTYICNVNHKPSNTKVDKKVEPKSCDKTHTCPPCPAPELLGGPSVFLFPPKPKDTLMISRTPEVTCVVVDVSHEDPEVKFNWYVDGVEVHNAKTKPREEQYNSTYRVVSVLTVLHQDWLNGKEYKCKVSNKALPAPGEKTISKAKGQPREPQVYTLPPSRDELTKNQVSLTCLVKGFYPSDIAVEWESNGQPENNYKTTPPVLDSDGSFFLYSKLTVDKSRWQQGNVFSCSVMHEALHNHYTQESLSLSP
light: B1 light
notes: also called Ho Ab I332_01G
B24: GpH7-B3 variant Q295_10E/GpL16-k0 (antibody, human IgG1, kappa)
heavy: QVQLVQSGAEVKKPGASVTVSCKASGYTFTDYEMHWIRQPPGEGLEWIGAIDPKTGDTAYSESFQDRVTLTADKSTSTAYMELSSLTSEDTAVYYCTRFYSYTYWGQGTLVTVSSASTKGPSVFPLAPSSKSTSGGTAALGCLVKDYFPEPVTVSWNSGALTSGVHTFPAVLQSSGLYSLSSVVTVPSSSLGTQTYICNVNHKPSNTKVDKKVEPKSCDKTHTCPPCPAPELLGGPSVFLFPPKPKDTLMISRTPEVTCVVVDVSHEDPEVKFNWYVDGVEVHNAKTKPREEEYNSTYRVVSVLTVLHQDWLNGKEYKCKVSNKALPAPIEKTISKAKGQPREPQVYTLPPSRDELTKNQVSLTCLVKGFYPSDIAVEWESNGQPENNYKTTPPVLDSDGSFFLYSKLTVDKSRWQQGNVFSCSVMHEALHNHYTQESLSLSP
light: B1 light
notes: also called Ho Ab Q295_10E
B25: GpH7-B3 variant I332_14T/GpL16-k0 (antibody, human IgG1, kappa)
heavy: not shown
light: B1 light
notes: also called Ho Ab I332_14T
B26: GpH7-B3 variant K334_15Y/GpL16-k0 (antibody, human IgG1, kappa)
heavy: not shown
light: B1 light
notes: also called Ho Ab K334_15Y
B27: GpH7-B3 variant S267_09D/GpL16-k0 (antibody, human IgG1, kappa)
heavy: not shown
light: B1 light
notes: also called Ho Ab S267_09D
B28: GpH7-B3 variant K326_15Y/GpL16-k0 (antibody, human IgG1, kappa)
heavy: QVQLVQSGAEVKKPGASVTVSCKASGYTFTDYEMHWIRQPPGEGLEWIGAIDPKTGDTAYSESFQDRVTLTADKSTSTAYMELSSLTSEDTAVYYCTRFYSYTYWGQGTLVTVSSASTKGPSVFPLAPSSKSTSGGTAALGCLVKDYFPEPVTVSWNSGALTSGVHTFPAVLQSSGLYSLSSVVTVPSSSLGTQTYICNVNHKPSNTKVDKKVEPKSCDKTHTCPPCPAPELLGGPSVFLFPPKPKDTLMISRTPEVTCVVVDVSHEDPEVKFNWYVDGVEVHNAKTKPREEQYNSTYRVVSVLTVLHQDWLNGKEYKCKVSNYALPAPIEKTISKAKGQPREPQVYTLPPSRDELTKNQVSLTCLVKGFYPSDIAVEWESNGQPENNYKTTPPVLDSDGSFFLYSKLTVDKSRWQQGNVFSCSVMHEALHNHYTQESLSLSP
light: B1 light
notes: also called Ho Ab K326_15Y
B29: GpH7-B3 variant S298_14T/GpL16-k0 (antibody, human IgG1, kappa)
heavy: not shown
light: B1 light
notes: also called Ho Ab S298_14T

Biological target: T1, FcγRIIIa extracellular domain with C-terminal His tag (human, UniProt P08637 17-208)
T1 construct: extracellular domain; also called FcgRIIIa; 3a; not shown: His tag attached to the C terminus
T1 sequence (P08637 17-208): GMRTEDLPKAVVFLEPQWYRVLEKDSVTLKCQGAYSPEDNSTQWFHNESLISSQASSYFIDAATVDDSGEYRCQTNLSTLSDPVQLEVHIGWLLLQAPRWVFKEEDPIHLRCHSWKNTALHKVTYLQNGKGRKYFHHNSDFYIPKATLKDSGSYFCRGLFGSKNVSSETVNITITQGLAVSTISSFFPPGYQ
Test: SPR Biacore, captured antibody, FcγR analyte, relative binding
Description: Analysis of interaction between objective antibody and the FcγR was carried out using Biacore T100 (GE Healthcare). HBS-EP+ (GE Healthcare) was used as the running buffer, and the measurement temperature was set to 25° C. Chips produced by immobilizing the antigen peptide by the amine coupling method to a Series S Sencor Chip CM5 (GE Healthcare), or alternatively, chips produced by allowing preliminarily biotinylated antigen peptides to interact with and immobilize onto a Series S Sensor Chip SA (certified) (GE Healthcare) were used. Antibodies of interest were captured onto an antigen peptide-immobilized chip, and allowed to interact to each FcγR diluted with running buffer. To regenerate and repeatedly use the chip, the antibodies captured on the chip were washed off by reacting 10 mM glycine-HCl, pH 1.5.

| Binder | Ho/Con_3a | He/Con_3a |
| --- | --- | --- |
| B1 | 118 % of HoCon Ab GpH7-B3/GpL16-k0 (=100) | – |
| B2 | – | 121 % of HeCon Ab GpH7-A5/GpH7-B3/GpL16-k0 (=100) |
| B3 | 129 % of HoCon Ab GpH7-B3/GpL16-k0 (=100) | – |
| B4 | 178 % of HoCon Ab GpH7-B3/GpL16-k0 (=100) | – |
| B5 | 118 % of HoCon Ab GpH7-B3/GpL16-k0 (=100) | – |
| B6 | 192 % of HoCon Ab GpH7-B3/GpL16-k0 (=100) | – |
| B7 | 206 % of HoCon Ab GpH7-B3/GpL16-k0 (=100) | – |
| B8 | 163 % of HoCon Ab GpH7-B3/GpL16-k0 (=100) | – |
| B9 | 110 % of HoCon Ab GpH7-B3/GpL16-k0 (=100) | – |
| B10 | 153 % of HoCon Ab GpH7-B3/GpL16-k0 (=100) | – |
| B11 | 107 % of HoCon Ab GpH7-B3/GpL16-k0 (=100) | – |
| B12 | 130 % of HoCon Ab GpH7-B3/GpL16-k0 (=100) | – |
| B13 | 137 % of HoCon Ab GpH7-B3/GpL16-k0 (=100) | – |
| B14 | 153 % of HoCon Ab GpH7-B3/GpL16-k0 (=100) | – |
| B15 | 108 % of HoCon Ab GpH7-B3/GpL16-k0 (=100) | – |
| B16 | 111 % of HoCon Ab GpH7-B3/GpL16-k0 (=100) | – |
| B17 | 134 % of HoCon Ab GpH7-B3/GpL16-k0 (=100) | – |
| B18 | 278 % of HoCon Ab GpH7-B3/GpL16-k0 (=100) | – |
| B19 | 107 % of HoCon Ab GpH7-B3/GpL16-k0 (=100) | – |
| B20 | 106 % of HoCon Ab GpH7-B3/GpL16-k0 (=100) | – |
| B21 | 119 % of HoCon Ab GpH7-B3/GpL16-k0 (=100) | – |
| B22 | 150 % of HoCon Ab GpH7-B3/GpL16-k0 (=100) | – |
| B23 | 104 % of HoCon Ab GpH7-B3/GpL16-k0 (=100) | – |
| B24 | 111 % of HoCon Ab GpH7-B3/GpL16-k0 (=100) | – |
| B25 | 138 % of HoCon Ab GpH7-B3/GpL16-k0 (=100) | – |
| B26 | 181 % of HoCon Ab GpH7-B3/GpL16-k0 (=100) | – |
| B27 | 160 % of HoCon Ab GpH7-B3/GpL16-k0 (=100) | – |
| B28 | 115 % of HoCon Ab GpH7-B3/GpL16-k0 (=100) | – |
| B29 | 107 % of HoCon Ab GpH7-B3/GpL16-k0 (=100) | – |
